{"source": "patent US6462173B1", "about": "“Inhibitors of phosphoserine and phosphothreonine-proline-specific isomerases” (Max-Planck-Gesellschaft zur Forderung der, priority 1997, dated 2002)", "molecules": {"B1": {"name": "Parvulin: prototype of the Pin1 family of PPIases, R68 and R69 replaced by Glu (protein, UniProt P0A9L5 2-93, looked up)", "Peptidyl-prolyl cis-trans …": "AKTAAALHILVKEEKLALDLLEQIKNGADFGKLAKKHSICPSGKRGGDLGEFRQGQMVPAFDKVVFSCPVLEPTGPLHTQFGYHIIKVLYRN"}}, "key": {"AAPF (peptide substrate)": {"tested_on": "T1, AAPF (peptide substrate)", "T1 sequence": "AAPF"}, "AEPF-pNA": {"tested_on": "T2, AEPF-pNA", "T2 sequence": "AEPFNA"}, "mitotic GST-Cdc25": {"target": "T3, mitotic GST-Cdc25 (Xenopus laevis, UniProt P30309)", "T3 construct": "made in house", "T3 sequence (P30309 1-550)": "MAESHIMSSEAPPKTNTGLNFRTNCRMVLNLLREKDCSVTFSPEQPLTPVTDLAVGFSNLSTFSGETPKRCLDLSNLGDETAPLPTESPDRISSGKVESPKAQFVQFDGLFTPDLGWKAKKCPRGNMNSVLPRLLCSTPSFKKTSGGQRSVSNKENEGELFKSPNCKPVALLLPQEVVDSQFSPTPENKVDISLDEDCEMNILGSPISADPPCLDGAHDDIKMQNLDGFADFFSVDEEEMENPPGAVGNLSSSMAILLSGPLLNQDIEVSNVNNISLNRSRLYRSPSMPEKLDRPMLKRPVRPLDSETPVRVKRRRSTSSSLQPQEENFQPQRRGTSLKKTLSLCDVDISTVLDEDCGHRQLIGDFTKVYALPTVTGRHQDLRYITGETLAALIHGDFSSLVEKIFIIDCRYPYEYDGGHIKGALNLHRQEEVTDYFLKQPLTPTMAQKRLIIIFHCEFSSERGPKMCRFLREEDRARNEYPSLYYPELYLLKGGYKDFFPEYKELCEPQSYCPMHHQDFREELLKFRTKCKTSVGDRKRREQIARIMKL", "test": "Cdc25 activity assay (activation of cyclin B/Cdc2, H1 kinase)", "type": "biochemical", "conditions": "0.67 μM protein, 1 μM mitotic Cdc25", "protocol": "Cdc2 was assayed using histone H1 as a substrate, as previously described in Murray, 1991; Lu and Hunter, (1995).\nA subthreshold concentration of GST cyclin B (10 μg) was added to 1 ml of Xenopus interphase extract for thirty min at room temperature (Solomon, M. J., M. Glotzer, T. H. Lee, M. Philippe and M. W. Kirschner, Cell 63:1013-1024 (1990). This was diluted 8 fold in XB+3 mM DTT, rotated for 1 h with 3 ml of GST agarose beads, washed 3 times in XBIP (XB+500 mM NaCl and 1% NP40+2 mM DTT), washed 2 times (once overnight) in EB (80 mM β glycerol phosphate, 15 mM EGTA, 15 mM MgCl2)+2 mM DTT, 500 mM NaCl and 1% NP40, and finally twice with EB+10 mM DTT. These Cdc25 assay beads were stored at 4° C. for up to 1 month. Mitotic GST-Cdc25 was purified by incubating 22 μg of GST-Cdc25, in a Xenopus mitotic extract for 30 min at 23° C., this was diluted 8 fold in XB and rotated with 50 μl of glutathione-Agarose beads (Sigma) for 1 hr at 4° C. The beads were washed 5 times in XB-IP, twice in XB+2 mM DTT and eluted in 25 μl XB+2 mM reduced GSH. The final concentration of Mitotic GST-Cdc25 was 0.36 mg/ml. […] Phosphoimager analysis of the H1 kinase assays were quantified by the Molecular Dynamics ImageQuant 3.3 software. […] The most reproducible way to quantify the Cdc25 activity in this assay was by determining the endpoint dilution of Cdc25 which could activate Cdc2. […]"}, "Cdc25, Cdc27": {"tested_on": "Cdc25, Cdc27", "test": "Binding of GST-Pin1 mutants to Cdc25 or Cdc27", "protocol": "(§1) To detect Pin1-binding proteins, either HeLa cells were lysed in or Xenopus extracts were diluted in a buffer (buffer A) containing 50 mM Tris-HCl, pH 8.0, 200 mM NaCl, 100 mM NaF, 1 mM sodium orthovanadate, 10% glycerol, 1% Triton X100, 10 μg/ml aprotinin, 50 μg/ml phenylmethylsulfonyl fluoride and 1 mM DTT. The lysates were preclarified with boiled S. aureus bacteria (CalBiochem) and then incubated with 10 μl of agarose beads containing various GST-Pin1 proteins or control GST for 2 h at 4° C. The precipitated proteins were washed 5 times in the same buffer and subjected to immunoblotting analysis. Immunoprecipitation and immunoblotting analysis using MPM-2 antibody (Davis et al. 1983), which was kindly provided by J. Kuang, Pin1 antibodies (Lu et al., 1996, kindly provided by M. White or newly generated), anti-phospho.Tyr antibody (UBI), anti-Cdc25C (Ogg, et al., 1994) (from H. Piwnica-Worms and Santa Cruz Biotechnology), anti-Cdc27, anti-Plk1 (Zymed), anti-Cdc2 (Solomon, M. J., M. Glotzer, T. H. Lee, M. Philippe and M. W. Kirschner. Cell 63:1013-1024 (1991), anti-human Myt1, anti-human cyclin B1 and anti-Xenopus cyclin B were performed, as described previously in Lu and Hunter, 1995; Lu et al., 1996).\nSeveral known mitotic regulators such as cyclin B, Cdc25, Myt1, Plk1 and Cdc27 are phosphorylated at mitosis. […]"}, "MPM-2 antigens": {"tested_on": "MPM-2 antigens", "test": "GST-Pin1 pull-down / depletion of MPM-2 antigens from HeLa cell extracts, MPM-2 immunoblotting", "type": "binding, human", "conditions": "mitotic HeLa cell extracts, GST fusion proteins", "protocol": "as §1\nTo determine whether GST-Pin1 can deplete MPM-2 antigens and to estimate what concentrations of Pin1 are required to completely deplete MPM-2 antigens, mitotic extracts were incubated with different amounts of GST-Pin1, followed by analyzing MPM-2 antigens remaining in the depleted supernatants. The total cellular Pin1 concentration in HeLa cells was estimated to be about 0.5 μM, based on immunoblotting analysis using anti-Pin1 antibodies with recombinant Pin1 protein as a standard.\nTo determine if the Pin1 mutants interact with mitotic phosphoproteins, GST-Pin1, -Pin1^R68,69A and -Pin1^H59A fusion proteins were incubated with interphase or mitotic HeLa cell extracts and associated proteins subjected to MPM-2 immunoblotting analysis. […] A few proteins including the most strongly reacting p55 band could still be recognized. […] Thus, mutating the residues that are implicated in binding either the substrate's putative phosphate group or the substrate's Pro residue abolish the ability of Pin1 to bind MPM-2 antigens."}, "[1]": {"tested_on": "phosphorylated and unphosphorylated peptide substrates; AEPF, AAPF", "test": "PPIase activity of site-directed Pin1 mutants and parvulin", "type": "biochemical", "text": "To test these predictions from the model, site-directed Pin1 mutants were generated and their PPIase activity assayed as described herein and in K. P. Lu, S. D. Hanes, T. Hunter, Nature 380:544 (1996); K. P. Lu and T. Hunter, Cell 81:413 (1995).\nSite-directed mutations of Pin1 were introduced using PCR-based techniques and verified by DNA sequencing. The corresponding mutant proteins were expressed and purified using the same procedures as those described for wild-type Pin1. PPIase activity was measured, as described previously (Lu et al., 1996), with the exception that the absorbance of p-nitroaniline (at 395 nM) was followed every second for 2-10 min. and data were analyzed offline using a kinetic computer program written by G. Tucker-Kellogg in the C."}}}
{"molecule": "GST-Pin1^H59A", "values": [{"measurement": "PPIase activity", "setting": "AAPF (peptide substrate)", "value": "The PPIase activity of Pin1^H59A was barely detectable against either peptide substrate"}, {"measurement": "PPIase activity", "setting": "AEPF-pNA", "value": "The PPIase activity of Pin1^H59A was barely detectable against either peptide substrate"}]}
{"molecule": "Pin1^R68,69A: Pin1 mutant with Ala substitutions at Arg68 and Arg69", "values": [{"measurement": "effect on Cdc25 activity", "setting": "mitotic GST-Cdc25", "value": "neither the mutant Pin1^R68,69A at the same concentration (0.67 μM), or BSA at a 25 fold higher concentration (15 μM) had a significant inhibitory effect on Cdc25 activity"}, {"measurement": "interaction with Cdc25 or Cdc27", "setting": "Cdc25, Cdc27", "value": "neither mutant Pin1^R68,69A nor Pin1^H59A interacted with Cdc25 or Cdc27"}, {"measurement": "binding of MPM-2 antigens", "setting": "MPM-2 antigens", "value": "significantly reduced compared to the wild-type protein"}]}
{"molecule": "B1", "values": [{"measurement": "isomerization of pS-P peptidyl bonds", "setting": "[1]; phosphorylated peptide", "value": "failed to catalyze the isomerization of pS-P peptidyl bonds"}, {"measurement": "catalytic activity for the unphosphorylated peptide substrate", "setting": "[1]; unphosphorylated peptide", "value": "very effective in catalyzing the P isomerization of the unphosphorylated peptide"}]}
